{"source": "a protein production outcome set (Wang et al. 2014)", "experiment": "label from the status in PepcDB records"}
{"sequence": "MASSKELCSIREWAPLTEVIERIPARLQRGFFPANLNLTCVDATEEFLAMGSDAGIVFWYNRHTGEMQKLKAEVATRITCVRVVNSVEYMVAAGCANGQVSIFQIQKELPRDLDLVAPCTKSRPIERYTIRDLHKCVVSCCEWSKNGMKLYSGDRQGVVVLTELDYQAHLSKSVEILSEAYEIVQLSVRQSYLLVATLYRCIVCQMDAQTSQWNITQVGKKDRKQLIDCGAIFLKKQEANKPQLVCGRPGLRFWVADAAGNVSKTVIFRDAVLRSPTWEIPILNPKQRSEPSGTHHTSASTSSTRHSGLADGDVGYVASSNFRQLYLYDGHDSLLVTHDDATLYVLNLDRLKVEAVARGLRKILDFCVCGKEIFVLEGNRTLLRLAPLPEPPNKTAKVIFNPLMPPPVPVLGSHLSQLESPIELQAEPVLQNAEECFELSPVEQLNLNVPIEIAVESPLTQQNRRLEIFRRIGEMDFEQSIVHTTRKTSVGKPPEASGVGIVEIGHETHELRLPLTNAATLMEASYCQMENNGLASPLDMKAAFLQHLPDALSPTTLQKTVAEKAKTLAAELDLPEVHLAPLSQEELHAVQAQTPQISDPLIRCYPTHLEEASIQTSSRENATNPADDYHVGEPVDGIRSFGVSKRKMAPLKFVLSQPKPTLKLEENRDDEEYTSFLPDFRRAGDPLAIHKETPATSDSNTSSEWEFLDN", "values": [{"measurement": "protein production", "value": "failed"}]}
{"sequence": "MEPGPEDYLVCAIAKPADKRLVVEKLLGKGARFFTLIHPSVIMGENVVIGQGAVICPSTVLSVDLRIGAFVTLNIGCLVGHDADIGDFSTLSGHCDITGGVVLEEEVFMGTHASVLPNVKVGKQAVVGAGSVAIRNVAAGITVFGVPAKRISGLEHHHHHH", "values": [{"measurement": "protein production", "value": "failed"}]}
{"sequence": "MSYNFEEERVIKEIREKNAKRVLLQFPEGLKYFSIDIVKKLREKLPNVNFIISGEPSWGACDIAEDEAQQVNADLIIHFGHTPYTWYYPKFPTIFINAESNLDISENALHSLENDISKYNGRKISLTATLQHVRLLSKIKSFLEDKGYDIVIGKPSNRFMFDGQVLGCDYKAAEVEADIYVIVSGGLFHALGLGLATNKPTIKLDPYLQKSEDITNDVRKILKVRYGKILQALDKRSWVIIQGVKVGQNRPNMIKYFYDKLTEKGYDVFTVTNKVLTLDILRNLDRNYIDVFLVTSCPRLPIDDLYNYEKPVLTPGEAKMIINNSLEPYIFPW", "values": [{"measurement": "protein production", "value": "failed"}]}
{"sequence": "MVKRTSHKQASCPVARPLDVIGDGWSMLIVRDAFEGLTRFGEFQKSLGLAKNILAARLRNLVEHGVMVAVPAESGSHQEYRLTDKGRALFPLLVAIRQWGEDYFFAPDESHVRLVERDSGQPVPRLQVRAGDGSPLAAEDTRVSRD", "values": [{"measurement": "protein production", "value": "not failed"}]}
{"sequence": "MSDNNDRMYELEYPSPEVSGQTAGGPTLIVALQGYADAGHAVESSSSHLMDALDHRLIASFNNDELIDYRSRRPVVVIEHNEVTSMDELNLGLHVVRDNDNKPFLMLSGPEPDLRWGDFSNAVVDLVEKFGVENTICLYAAPMTVPHTRPTVVTAHGNSTDRLKDQVSLDTRMTVPGSASLMLEKLLKDKGKNVSGYTVHVPHYVSASPYPAATLKLLQSIADSADLNLPLLALERDAEKVHRQLMEQTEESSEIQRVVGALEQQYDSE", "values": [{"measurement": "protein production", "value": "not failed"}]}
{"sequence": "MSLLKIFYVILGFISLGLGLIGIILPILPTTPFLLLTAFCFVKGSDKFDKWFKGTKIYKNHLESFEKNRAMTLKTKLTILLTADIMLLFPLILSKSIHLKIFIVILMMFKFYYFIFRIKTVKAGDVVEQNR", "values": [{"measurement": "protein production", "value": "failed"}]}
{"sequence": "MTEEAAAQQTPVPGMTGPRRAAVGFIFITIALDMLSLGMILPILPKLIESFSDDNTANAARIYGLFGTAWALMQLFASPILGGLSDRFGRRPVILLSNLGLGLDYVLMALAPSLWWLFVGRVISGITSASISTSFAYIADVTPAEKRAAVFGMVGAAFGLGFTFGPAIGGLLGGVDPRLPFWVAAALSLANTLYGLFVLPESLPRDRRSPFRWKSANPIGAVRLLSSNARLAALAVVEFCAEVAHVALPATFVLYTGYRYAWDQTTIGLALAFVGVCTTIVQGGLVGPAVKLLGERNAQIIGYGGGALGFLIYALAPSGTLFWIGIPVMTLWGIAGPATSGMMTRLVSPSQQGQLQGATTSVKSVAELIGPFLFTMIFAYFIDAGAPLQLPGAPFLLAGALLVVSVVIVAFASPAADSKQAPQAAPES", "values": [{"measurement": "protein production", "value": "failed"}]}
{"sequence": "MKNQSPVPSYEGNVFMIDARDLSIAWSEDSNHWTWLPLPNQNSNTILSSESVMEIAFLKSASWLDVAGKFDTRYLTPRTRYEVVFVVKLEYTFEWETLVKLKLDLPNTWEKPQEQSVDMFDYISDQWLDIPVGEFTTSKKNVGEISFAMYEHECQLWKSGLFVKGVTIRPKY", "values": [{"measurement": "protein production", "value": "failed"}]}
{"sequence": "MMNYRKADMKDISLLVSIRKRQLIDEGIEPNIDIDKELTRYFNNKLANNLLVEWIAEENNQIIATAAIAFIDFPPTYTNKTGRKGYITNMYTEPTSRGNGIATGMLDRLVNEAKERNIHKICLVASKLGRPVYKKYGFQDTDEWLELNLLEHHHHHH", "values": [{"measurement": "protein production", "value": "failed"}]}
{"sequence": "MAVSSLGNIYCAAAGFHSVPIVICQTSCVRWRGSGRTSGAICCAECVARGSDVRAYFRGQDKDAVGKDAVAPGVGCVQPVAIGIHAGLYRWRDRLRIGIDGDHARCRPDVAHGELDVGASAVPRRGSHGHRGRARAGGLVQELSVREQPPVDHRHLRAVLRLAGAAALLTQGRNAQGAVRELVCARYRHAVSGPRQPQGRGTGATSGGCVVAPGQTVVSVSRRHPQPHRRIIAIQGRATAGCYRCWRAGGSGGAGRLRQGVAGRWPVQGAPRHHPRADRYADRCDRAGCAGSPTIDRAGTQGRGCNASPQDLSSTLMDFVVPHDHPCLPGHFPGRPVVPGVVVLDHVLQAVEALHGPRAAARLPQVKFVQPLLPGQTASVTLEGDGPRWRFRVQRADVVLVSGELVAEAGT", "values": [{"measurement": "protein production", "value": "failed"}]}
{"sequence": "MKYLASFRTTLKASRYMFRALALVLWLLIAFSSVFYIVNALHQRESEIRQEFNLSSDQAQRFIQRTSDVMKELKYIAENRLSAENGVLSPRGRETQADVPAFEPLFADSDCSAMSNTWRGSLESLAWFMRYWRDNFSAAYDLNRVFLIGSDNLCMANFGLRDMPVERDTALKALHERINKYRNAPQDDSGSNLYWISEGPRPCVGYFYALTPVYLANRLQALLGVEQTIRMENFFLPGTLPMGVTILDENGHTLISLTGPESKIKGDPRWMQERSWFGYTEGFRELVLKKNLPPSSLSIVYSVPVDKVLERIRMLILNAILLNVLAGAALFTLARMYERRIFIPAESDALRLEEHEQFNRKIVASAPVGICILRTADGVNILSNELAHTYLNMLTHEDRQRLTQIICGQQVNFVDVLTSNNTNLQISFVHSRYRNENVAICVLVDVSSRVKMEESLQEMAQAAEQASQSKSMFLATVSHELRTPLYGIIGNLDLLQTKELPKGVDRLVTAMNNSSSLLLKIISDILDFSKIESEQLKIEPREFSPREVMNHITANYLPLVVRKQLGLYCFIEPDVPVALNGDPMRLQQVISNLLSNAIKFTDTGCIVLHVRADGDYLSIRVRDTGVGIPAKEVVRLFDPFFQVGTGVQRNFQGTGLGLAICEKLISMMDGDISVDSEPGMGSQFTVRIPLYGAQYPQKKGVEGLSGKRCWLAVRNASLCQFLETSLQRSGIVVTTYEGQEPTPEDVLITDEVVSKKWQGRAVVTFCRRHIGIPLEKAPGEWVHSVAAPHELPALLARIYLIEMESDDPANALPSTDKAVSDNDDMMILVVDDHPINRRLLADQLGSLGYQCKTANDGVDALNVLSKNHIDIVLSDVNMPNMDGYRLTQRIRQLGLTLPVIGVTANALAEEKQRCLESGMDSCLSKPVTLDVIKQTLTVYAERVRKSRDS", "values": [{"measurement": "protein production", "value": "failed"}]}
{"sequence": "SESICNSLNSKLEPTLENLENLDVSAFQAPEDLLDGCRIYLCGFSGRKLDKLRRLINSGGGVRFNQLNEDVTHVIVGDYDDELKQFWNKSAHRPHVVGAKWLLECFSKGYMLSEEPYIH", "values": [{"measurement": "protein production", "value": "not failed"}]}
{"sequence": "MASASFSAVSSLSYQFRSKEAIFSSKASCFSSTALSGRRVFGSIKAAQVTSHENPRRRTQNVEGDIFVDNTCIDCDTCRWMVPDLFTRVDNMSAVTKQPTCKEERLNALQALLSCPTGSIRTQTPPADIGEAQETFPLVVDKDTLPGVFHCGFHSKKSYGATSYLILHREGNILVDSPRYVEKLAGKIEMKGGVRYMFLTHRDDVADHKKWADRFKSTRILHSDDVEPSTSDVELKLEGSGPWSIYEDVELIHTPGHSEGSVCMFHKSLKALFTGDHVIMTESGLSILEQYNHGSVPLQLENVEKLINLDFNWLIPGHGRRVHFKDGDEKAKNLEALVQKHREKQLVSFSKSGKA", "values": [{"measurement": "protein production", "value": "failed"}]}
{"sequence": "MRRYRTCDNPPPSNGGRACGGPDSQIQRCNTDMCPVDGSWGSWHSWSQCSASCGGGEKTRKRLCDHPVPVKGGRPCPGDTTQVTRCNVQACPGGPQRARGSVIGNINDVEFGIAFLNATITDSPNSDTRIIRAKITNVPRSLGSAMRKIVSILNPIYWTTAKEIGEAVNGFTLTNAVFKRETQVEFATGEILQMSHIARGLDSDGSLLLDIVVSGYVLQLQSPAEVTVKDYTEDYIQTGPGQLYAYSTRLFTIDGISIPYTWNHTVFYDQAQGRMPFLVETLHASSVESDYNQIEETLGFKIHASISKGDRSNQCPSGFTLDSVGPFCADEDECAAGNPCSHSCHNAMGTYYCSCPKGLTIAADGRTCQDIDECALGRHTCHAGQDCDNTIGSYRCVVRCGSGFRRTSDGLSCQDINECQESSPCHQRCFNAIGSFHCGCEPGYQLKGRKCMDVNECRQNVCRPDQHCKNTRGGYKCIDLCPNGMTKAENGTCIDIDECKDGTHQCRYNQICENTRGSYRCVCPRGYRSQGVGRPCMDIDECENTDACQHECKNTFGSYQCICPPGYQLTHNGKTCQDIDECLEQNVHCGPNRMCFNMRGSYQCIDTPCPPNYQRDPVSGFCLKNCPPNDLECALSPYALEYKLVSLPFGIATNQDLIRLVAYTQDGVMHPRTTFLMVDEEQTVPFALRDENLKGVVYTTRPLREAETYRMRVRASSYSANGTIEYQTTFIVYIAVSAYPY", "values": [{"measurement": "protein production", "value": "failed"}]}
{"sequence": "MAQEDVTAVATNGAGPVETHLVFTEFKQMLLVEAQKVGDAVTFYKSAFGAIESGHSLYPKRKLDQELPHVLSSELNLAGSSFVVCDVSSLPGFSTAKSEGSGVTFLLGTKDAEAAVAKAVDAGAVKVEVTEAEVELGFKGKVTDPFGVTWIFAEKKTVITDENKEV", "values": [{"measurement": "protein production", "value": "not failed"}]}
{"sequence": "MSIREVIMDYLENSSKKALSVEELSVALHMNKAKDYKVFVKTLASLEAEHLLNFTAKGKVELAEKEEAKVVISGIFRANAAGFGFVSIDAEEPDVFVARGQTAFALDGDEVFIEIDKNANALKGTSAEGHVVEIIRHDVHQVVGTFVALNDDEKEQTGLIGFVKSRNKKIPYRVYLENEGLIPENKAIVRVEITHYPDKEFPQTMQGLVTEIIGQADDQGIDVLEVLASMDIVSEFPKEVLDQAEAVPEEVPENEIVGRVDYRNEITFTIDGADAKDLDDAVHAKRLENGNYELGVHIADVSHYVTENSPLDKEAYERGTSVYVTDRVVPMLPERLSNGICSLNPRINRLTQSCVMEISPEGRVINYQISQSIIKTTERMTYDAVNQMIAGDEAALENYAKIADSVKIMVELHHILEAMRKRRGAIDFDTVEAKIIVNEKGLPIEIRKRTRGIAERMIESFMLEANETVATHFEAHGLPFIYRIHEQPKADRLQRFIDFAATFGMQIEGTSNGIDQKVLQAFMKKIKGQPGEMVLSTMLLRSMQQARYSENNEGHFGLAAENYTHFTSPIRRYPDLLVHRLIREIGEGKTPANILQKWEDKIPEIAEHSSHRERRAVDAEREVEKMKKAEFMEEHVGEEYEGIIASVTRFGMFIELENTIEGLVHISTLKGDYFNYQERMLALIGERSGLTFKIGQPIKIKVVKADRMTGEIDFEYLPSELDLIDKAAKAKKKPDHKGRKKSNQSLKVKSVAPKSTDKSANKSKNGRRADEKFEFDKKKKKSAKKPFYSKAAKGKFTDKKDNGKKFTDGRKKPHKRG", "values": [{"measurement": "protein production", "value": "failed"}]}
{"sequence": "MVSYDRHINHVRLFVDGILDSSFLTEGITKTNDSPIYIGGAPYSVDSCDFPFLLDELKIYNLSIGTDQIQSEASASLSGIEPSFIYFGCFHCDMNTAILSCPNNYHLCNKMELYIGVYNVLRKFSLDVNNIILPYSSESNLGIGICCTDI", "values": [{"measurement": "protein production", "value": "failed"}]}
{"sequence": "MAPVIRRAKEIDLYCLNSLMYKLHDEHHQQCPDLFKTASEIEEEKSIARYLDDPECMVYVAEMDDVIIGFITGHFCELISTVSKLVMMATIDELYIEKEYRREGVAEQLMMRIEQELKDYGVKEIFVEVWDFNKGALEFYNKQGLNEHIHYLRKPLNRLEHHHHHH", "values": [{"measurement": "protein production", "value": "not failed"}]}
